# Test results published in the DeepSol protein solubility set.
# Experiment: soluble on expression in E. coli; label from the status in PepcDB or PDB records
row,Sequence,soluble on expression in E. coli
1,MRTFCILKDFKIFIIFFLQNPCGGEGLNILERIAKEVQEETKVRLHARNVERVLQALLKTGDFWKIVDYSDLPVPAASGIIKKFLDEGIVFIDENENILFTQKGLDLVKELGIEPFEEHKCRACEGRGIPFYDDKELYRTFVEIAKDRPKPVQQYDQGSVTPETTVSRVLFLDSRGDLRGKEIIVMGAEDDLTGLAIALTRKAKRVLIIDIDERLIDFDNRIIKELGIDNAEAMVWDLRNPYTEDFLGKFDVFITDPPETFAAFRAFIGRGIATLKDAGCAGYFGLTLRDSSIFRWKEFQEILINEYGVVITDIIQDFNDYMNWEYHPETRAAQIAPVKKNPTDIWYRSAWYRIETLPGFKRWNEPISDEVFYLDEEGSTT,not soluble
2,MGSDKIHHHHHHMTSQYKASRFATPRDMPEQTYRLSNVCLPAPLSMGELETFSAISRQVSPLRKRHTLFEQGEAFRSLYIVRCGSLKQVYRDITREEHVTQFYLPGEVVGLDALSSGFHPGATIALETTSVCEIGPESIEELAHGDRTERGVGGCFLRVMSRAMHQERMMVRLFLNRTSDVRLASFLLALSGRFRQQGYSPFCFRLSMSRSDIGNYLGLAVETVSRLLGRFQHLGLLTAKGREIRIDDLEALAALADGRSRHSIWDTADEAPERLASMSTH,not soluble
3,MKLNAIHHVAIIVSDYHLSKDFYVNKLGFEIIRENYRPDKHDYKLDLSCGRIELEIFGKVTSDPNYQAPPKRVSEPEFKSEACGLRHLAFRVTNIESYVDDLKSLGIPVEPIRHDDYTGEKMTFFFDPDGLPLELHE,not soluble
4,GPGSMSALWAQVRQTVESEWDKTIVPAISAYIEVPNQSPQFDPEWATNGLQEKAFGILIDWMNAQNVQGLTYDYITADGRTPFLLVEIAGTEPTNNTVLMYGHMDKQPPLRPWAEGLDPHKAVVRDGKLYGRGGADDGYALFAAVTAISSLQRHGIPHGRVVITIEAGEESGSPDLDYYMERCKERIGKVDLMVCLDSGSMNYSQVWLTTSLRGVAIGELTVQTLTESMHSGVAGGVVPDTFRITRELLSRIEDCKTGEVTIPEAHCEIPPNAVKAAEAMKTVPFKEQFAMAAGVATVPGDNVELAIQNFWKPSLTVTGANLPDPQIAGNVIRTHTTVKLSMRLPPLVKAEAALQAMKRILEADPPYGAKVAFKGVGAGNGCAAPELKPWLQEVLHEGSTEAFGNTYACQGMGGAIPFIGMLIDMYPEAQFVVTGLLGPQSNAHGPNEFLHIPYAKGLTYSIARVVAAHLHNTPK,soluble
5,MGHHHHHHSHMEKRKPTIQNIEVSDHTAELSLRVDADILDFQGHFSHFPLLPGVTQIDWALFYAVQYLNTPKVFKGMEVIKFQEPILPNADVCLSLSWDNEREKLTFKYTSKNGETLVTHSSGKMKLGESRE,soluble
6,GAMGNLRLIGVPESDVENGTKLENTLQDIIQENFPNLARQANVQIQEIQRTPQRYSSRRATPRHIIVRFTKVEMKEKMLRAAREKGRVTLKGKPIRLTVD,soluble
7,MNITDLKPTKVWKFFHEITQVPRPSKKEEKILAYLVKFAEDRNLKYRTDEVGNLVIEKPATPGYEHLETVILQSHMDMVCEKNADKVHDFENDPIRTIIDGEWLHADGTTLGADNGIGCAAELAILDSDDIEHGPIECLFTMDEETGMTGAMNLKPGFFNGKILLNLDSEDEGELFIGCAGGMGTMVEFAYEKREATDDYLYFEVKVSGLKGGHSGGEIHIGLGNANKILTRYLYALEHELDWKLCSFQGGNLHNAIPREAHAVIGLKADQKERARVILNELAAAVEDELKRVDPGVKLEMKSVGKPAYRIDCDTKRRLVRALYACPHGVYGMSHDIEGLVETSSNLASVKMKEDDKIYVETSQRSSTSSLISDIANTVASVFELADAKISFRDPYPGWKPNPDSPILKAASESYERIFGRKPAIKAIHAGLECGLFLDKYPYLDMVSFGPTLRDVHSPVEKIEIKTVQLWWDHLVDILKHIPAAK,not soluble
8,MAHRKTTTKNGNGGTLGFEAELFKAADKLRGNMEPSDYKHVALGLIFLKYISDAFEAKHSALLAEDAQAAEDKDEYLAHNVFWVPKQARWSHLKANAKQSTIGTLIDEAMRDIEKDNPSLKHVLPKDYARPALNKVMLGELIDLISGIALNEEGARSKDILGRVYEYFLGQFAGAEGKRGGEFYTPRSVVRVLVQMLEPYSGRVYDPCCGSGGMFVQSEKFVLEHGGRIGDIAIYGQESNYTTWRLAKMNLAVRGIDSDIRWNNEGSFHNDALRDLKADYILANPPFNISDWGGDRLREDVRWKFGVPPAGNANYAWLQHIYHHLAPNGTAGVVLANGSMSSNHSGEGEIRTHMIEADIVDCMIAMPGQLFYSTQIPACLWFLARNKNPGKGLRDRRGQVLLMDARALGVLVDRTRRELTDEHIQQIADTYHAWRGEQGAAAYADVAGFCKSATLEDIRKQGYVLTPGRYVGAVEREDDGEPFPQKMQRLSAQWRAQRAAAAKLDAAIAANLKELGYGG,soluble
9,MEKKFPTVVTIGGRRYVKNNLNRKSEDCKMKLKEALKSFGRRVQKLQMSHCTIEKGTSLHVYKLDDARVIFTKKNKPIGFVVTGKAEEIDKSVYEKASSEINDATGKPNEPGAEERAEKDDASLID,not soluble
10,MKKILFICLGNICRSPMAEFIMKDLVKKANLEKEFFINSAGTSGEHDGEGMHYGTKNKLAQLNIEHKNFTSKKLTQKLCDESDFLITMDNSNFKNVLKNFTNTQNKVLKITDFSPSLNYDEVPDPWYSGNFDETYKILSLACKNLLVFLSKHHHHH,soluble
11,SLKGRWVKYLLMGTVVAMLAACSSKPTDRGQQYKDGKFTQPFSLVNQPDAVGAPINAGDFAEQINHIRNSSPRLYGNQSNVYNAVQEWLRAGGDTRNMRQFGIDAWQMEGADNYGNVQFTGYYTPVIQARHTRQGEFQYPIYRMPPKRGRLPSRAEIYAGALSDKYILAYSNSLMDNFIMDVQGSGYIDFGDGSPLNFFSYAGKNGHAYRSIGKVLIDRGEVKKEDMSMQAIRHWGETHSEAEVRELLEQNPSFVFFKPQSFAPVKGASAVPLVGRASVASDRSIIPPGTTLLAEVPLLDNNGKFNGQYELRLMVALDVGGAIKGQHFDIYQGIGPEAGHRAGWYNHYGRVWVLKTAPGAGNVFSG,not soluble
12,NNLLYKRWVKQRAADVDKWSDGRLGYVHIQSMGDDSFRSVYSDILGKYNNREGIVIDTRFNGGGRLHEDIEVLFSGKKYFTQVVRGREACDMPSRRWNKPSIMLTCEANYSNAHGTPWVYSHQKLGKLVGMPVPGTMTSVSWERLQDPSLVFGIPVIGYRLPDGSYLENTQLEPDIKVANSPETIVKGEDTQLKTAVEELLKELPAGKGKKH,not soluble
13,MGSDKIHHHHHHMLIFQYDFKIEFYNTVNSKNSIGGRLSGLRPRVVITTQNGAPDLNIFIQNTYSENNLITSKKAKLQIFNVPLDFSDFKTADIVKIYYKKFSDQQDYQFIMAGYLGAPVERIGGAENFSFECELYLLSRATFLERKFEYKNFKGSTIADAINYAFKDKAIFFMNELEKTKVIKESFACNSPKGLIEYLRRQGYVDAVIVDIGNPGQDVDLKFIFMNFEQFGAAEYKRLEDYGLLFVPQKDALGFKSGLSLYQAQVMFTHNIKIADNLSFKDRHGNTLDCKVKNTSARLSSTRECVLNLELYSKGEMYYAK,not soluble
14,MLKKMGEAVARVARKVNETVESGSDTLDLAECKLVSFPIGIYKVLRNVSGQIHLITLANNELKSLTSKFMTTFSQLRELHLEGNFLHRLPSEVSALQHLKAIDLSRNQFQDFPEQLTALPALETINLEENEIVDVPVEKLAAMPALRSINLRFNPLNAEVRVIAPPLIKFDMLMSPEGARAPLP,not soluble
